The source of these data is patent US20230203461A1, “BETA-ETHERASES FOR LIGNIN DEPOLYMERISATION” (The University of York, priority 2020, published 2023).

Data set [1] concerns β-etherase. Description: Phenol oxidase assay (substrate specificity) with β-etherase. The class given is biochemical, P. putredinis NO1. The settings on record: 1 mM substrate, 50 mM Tris pH 8.5, room temperature. As for the experimental part: Specificity was investigated by incubating 1 mM of each substrate of interest with the enzyme in 100 µL Tris pH 8.5 buffer at room temperature. Activity was determined by monitoring the change in Ultraviolet-Visible absorbance spectra (220 - 750 nm) of aliquots using a NanoDrop 8000 Microvolume UV-Vis spectrophotometer (Thermo Scientific). Scans were performed at regular intervals over 2 h.

Data set [2] deals with tyrosinase. The settings on record: literature statement; cited from earlier work.
Data set [3] is described as follows: Release of products from sugarcane bagasse (HPLC). The settings on record: 16 h, pH 8.5, 30° C. In kind it is biochemical.
Data set [4] is described as follows: Fluorescence assay for β-etherase (4MU release from GGβ4MU). In kind it is biochemical. As for the experimental part:
Enzyme activity was measured in 1 mL reaction containing 10 µL 4MU/GGβ4MU (synthetic fluorescent substrate 10 mM) and appropriate concentration of pure protein in 50 mM Tris-HCI, 100 mM NaCl, pH 8.5, 5 mM CuSO4. The reaction was incubated at 30° C. for 1 h. Formation of 4-methylumbelliferone (4MU) was monitored using an RF-1500 fluorometric analyzer. After 0 h and 1 h of incubation 100 µL of the reaction mixture was taken and added to 50 µL of 100 mM glycine-NaOH buffer (pH 10.0). One unit of the enzyme was defined as the amount that released 1 nmol of 4 MU/h from the substrate. Five replicate were taken for each sample, and control reactions of boiled enzyme and wheat straw treated with buffer only were also performed.
The effect of pH and temperature on enzyme activity was investigated by varying the pH of the reaction mixtures using 50 mM Tris-HCI buffer from pH 7.0 to 9.5, 50 mM glycine-NaOH buffer at pH range 9.0 to 10.5 and 50 mM Na2HPO4-NaOH buffer at pH range 10.5 to 12. The optimum temperature of enzyme activity was determined at various temperatures ranging from 20° C. to 70° C. Assays were performed as described in the previous section.

Data set [5] can be described thus: 2D HSQC NMR of enzyme lignins from treated wheat. To be noted: HSQC volume-integrals, S + G + H = 100% basis; control nearly 12%. As for the experimental part:
Enzyme lignins, representing essentially all of the lignin in the sample, were prepared following ball-milling of the cell wall isolate as previously described.(75-77, 78)
2D NMR of enzyme lignins (EL) in 4:1 v/v DMSO-d6:pyridine-d5 were acquired on a Bruker Biospin (Billerica, MA) Avance 700 MHz spectrometer equipped with a 5-mm QCI ^1H/^31P/^13 C/^15 N QCI cryoprobe with inverse geometry (proton coils closest to the sample), as described previously.(76,77) Volume-integration of contours in HSQC plots used TopSpin 4.07 (Mac version) software, and no correction factors were used. The data represent volume-integrals only, and data are presented on an S + G + H = 100% basis (FIG. 17); pCA, and tricin T units are always terminal and are, therefore, likely overestimated.(77) Data assignments here were made by comparison with published data from other samples from our lab, including in the various tricin-related papers.(71-74, 79, 80)

The nature of data set [6]: Saccharification after β-etherase pretreatment, sugarcane bagasse (HPAEC). In kind it is biochemical. To be noted: 16 h β-etherase pretreatment, then commercial cellulases. As for the experimental part: (§1) For saccharification reactions, biomass pretreated with β-etherase was incubated with 1.2 µg/mL enzyme cocktail (4:1 Celluclast: novo 188 (Novozymes)) in 50 mM sodium acetate at pH 4.5 and incubated overnight at 37-40° C. with shaking. This was performed alongside a control reaction with buffer only. Solids were removed by centrifugation, and residual protein was precipitated with 80% ethanol. The supernatant, containing mono- and oligosaccharides, was dried with a centrifugal evaporator before samples were resuspended in ultra-pure water and filtered through a 0.2 µm polytetrafluoroethylene (PTFE) filter. Five replicates from each sample were investigated, and carbohydrate composition was analyzed by high-performance anion-exchange chromatography (HPAEC).
High-performance anion-exchange chromatography was used to analyze monosaccharide release after saccharification. Briefly, 5 µL of samples or standards were injected on a CarboPac PA20 3 × 150 mm analytical column via a CarboPac PA20 3×0 mm guard column using Chromeleon 6.8 Chromatography Data Systems software (Dionex). Sugars were separated at a flow rate of 0.4-0.5 mL min^-1 at a temperature of 25° C. as follows: after equilibration of the column with 100% H2O, samples were separated in a linear gradient of 100% H2O to 99%-1% of H2O-0.2 M NaOH for 5 min, then constant for 10 min, followed by a linear gradient to 47.5%-22.5%-30% of H2O-0.2 M NaOH-0.5 M NaOAc/0.1 M NaOH in 7 min and then kept constant for 15 min. After washing the column with 0.2 M NaOH for 8 min it was re-equilibrated with 100% H2O for 10 min before the injection of the next sample. Carbohydrates were detected by ICS-3000 PAD system with an electrochemical gold electrode, identified by comparison with retention times of external standards (arabinose, fucose, galactose, glucose, glucuronic acid, mannose, rhamnose, and xylose) and quantified through the integration of these known standards.

Data set [7] is described as follows: Saccharification after β-etherase pretreatment, wheat straw (HPAEC). The class given is biochemical. The settings on record: 16 h β-etherase pretreatment, then commercial cellulases. As for the experimental part:
as §1
(§2) High-performance anion-exchange chromatography was used to analyze monosaccharide release after saccharification. Briefly, 5 µL of samples or standards were injected on a CarboPac PA20 3 × 150 mm analytical column via a CarboPac PA20 3×0 mm guard column using Chromeleon 6.8 Chromatography Data Systems software (Dionex). […] Carbohydrates were detected by ICS-3000 PAD system with an electrochemical gold electrode, identified by comparison with retention times of external standards (arabinose, fucose, galactose, glucose, glucuronic acid, mannose, rhamnose, and xylose) and quantified through the integration of these known standards.

Data set [8] in a line: Release of products from rice straw (HPLC). The class given is biochemical. The settings on record: 16 h, pH 8.5, 30° C.
Data set [9] in a line: Release of tricin and lignin units from wheat straw (HPLC). The settings on record: 16 h, pH 8.5, 30° C. The class given is biochemical. As for the experimental part:
Wheat straw was ground to <1 mm using a cyclone mill (Retsch) and washed several times with 50 mM Tris pH 8 to remove residual surface sugars. […] Reactions were incubated overnight at 30° C. with shaking. Control reactions were performed using wheat straw incubated with boiled β-etherase or with buffer only. Tricin was extracted based upon Karambelkar.^70 Briefly, 1 mL of ethyl acetate was added to 100 µL of the reaction supernatant. This was homogenized before being centrifuged for 5 min at 13,000 rpm. The ethyl acetate layer was transferred into new tubes and evaporated using a centrifugal evaporator at 55° C. before being resuspended in 100 µL 50% H2O, 50% acetonitrile. This was analyzed with a Waters 2996 photodiode array detector Separations Module HPLC system, column used was C18-5 µM preparative column (4.6 × 250 mm, Waters, X-Bridge, Made in Ireland). The mobile phase was 0.1% acetic acid in water (A), and methanol (B) and a linear gradient was used; 95% A (5 min), 70% A (25 min), 0% A (30 min), 95% A (5 min), the flow rate was 1.0 mL/min. After identification through comparisons with authentic standards, based on retention time and UV spectrum, peaks were manually collected and the mass confirmed with mass spectroscopy.

Data set [10] in a line: Saccharification after β-etherase pretreatment, rice straw (HPAEC). In kind it is biochemical. To be noted: 16 h β-etherase pretreatment, then commercial cellulases. As for the experimental part: as §1, §2
Where [11] appears, read: purification step: Culture filrate.
Where [12] appears, read: purification step: Q (anion-exchange).
[13] abbreviates: purification step: S.E (size-exclusion).

As to `N[C@@H](Cc1ccc(O)c(O)c1)C(=O)O` [L-Dopa, 3,4-dihydroxy-L-phenylalanine], the “activity of the β-etherase against the substrate” value (shortened to “activity of the β-etherase”) in [1] is “did not display activity”.
As to `COc1cc(-c2cc(=O)c3c(O)cc(O)cc3o2)cc(OC)c1O` [Tricin, 5,7-dihydroxy-2-(4-hydroxy-3,5-dimethoxyphenyl)-4H-chromen-4-one], the “type of tyrosinase inhibition” value in data set [2] was “binds non-competitively”.
For `O=c1c(O)c(-c2ccc(O)c(O)c2)oc2cc(O)cc(O)c12` [Quercetin], the “activity of the β-etherase” value in data set [1] is “showed activity”. Further, the tyrosinase inhibition entry in data set [2] is listed as “known to be tyrosinase inhibitors”.
For the molecule `O=C(O)c1ccc(O)cc1` [4-Hydroxybenzoic acid], the “activity of the β-etherase” value in data set [1] is reported as “showed activity”. Besides, the tyrosinase inhibition result in data set [2] was “known to be tyrosinase inhibitors”.
For `O=C(O)/C=C/c1ccc(O)cc1` [p-coumaric acid], the “type of tyrosinase inhibition” value in data set [2] is given as “mixed-type inhibition effect”.
For the molecule `COc1cc(C(=O)O)ccc1O` [Vanillic acid], the “activity of the β-etherase” value in [1] is reported as “showed activity”. In [2], the tyrosinase inhibition entry is “known to be tyrosinase inhibitors”.
Consider `N[C@@H](Cc1ccc(O)cc1)C(=O)O` [L-tyrosine], for which the “activity of the β-etherase” value in data set [1] is given as “did not display activity”.

B1: β-etherase: copper-containing extracellular β-etherase of Parascedosporium putredinis NO1 (c2092), independent of NAD+ and glutathione, expressed recombinantly in E. coli (protein, listed as Parascedosporium putredinis)
chain: MPSAKRLLGLLLAATAAVGVAAQEPALTEDDFSIPEIEGGDALAQLAQLAADSSQETALRMAKRGLNSGCSPSQIKVRREWRTLTSAQRKQYIASVKCLQTKPSFFDPNIIPAAKSLFDDFVGVHVFQTGSIHLTATFLTWHRYFVYTYETKLREECGYTGPLPYWEWGLDVNNPNASPVFDGSDTSLSGNGAFFAHEGIQMVQPINGNILKLPPGNGGGCVTKGPFKDMKVHFGTIILPVYGQPILSGVENPIADNERCLKRDLNAGIAKRFTSFLNSTSVILKNNNIEMFQAHLQGDDRYVLNQLGVHGGGHYTIGGDPGGDPFISPGDPAFYLHHAQIDRIYWIWQMLDFKNRQGVHGTATLQNNPPSANVTVEDTIDLSPLAPPVKIKDLMNTVGGSPLCYIYL
As to B1, in [3], the “p-coumaric acid release from sugarcane bagasse” value is on record as “significantly enriched” and the “tricin released from sugarcane bagasse compared to wheat straw” value is “smaller amount of tricin was released”. For the same molecule, the “temperature of maximum activity” value in [4] (GGβ4MU assay, 20° C. to 70° C. tested) is 60 °C. Moreover, the “pH of maximum activity” value in [4] (GGβ4MU assay, pH 7.0 to 12 tested) is 10. Further, in data set [4] (setting [11]), the “Activity (mU) (nmol/mg/hr)” value came out at 7500 mU and the “Specific (U/mg)” value is reported as 7.32 U/mg. Further, in [4] (setting [12]), the “Activity (mU) (nmol/mg/hr)” value is reported as 2600 mU and the “Specific (U/mg)” value was 88 U/mg. Besides, in [4] (setting [13]), the “Activity (mU) (nmol/mg/hr)” value is given as 1950 mU and the “Specific (U/mg)” value is 139 U/mg. In data set [4] (recombinant purified protein from E. coli), the “β-etherase activity (fluorescence released after incubation with GGβ4MU)” value is on record as “confirmed”. For the same molecule, the “relative tricin ether level in the lignin after treatment” value in data set [5] is “about 8.5%”. In [6], the “increase in arabinose after saccharification vs untreated control” value was determined as 23 fold, the “increase in glucose after saccharification vs untreated control” value came out at 2 fold and the “increase in xylose after saccharification vs untreated control” value amounted to 5 fold. The “increase in glucose release after saccharification” value in data set [7] was 1.2 fold. Also, the “product release from rice straw” value in data set [8] is “little difference in product release”. For the same molecule, in [9], the “p-coumaric acid, vanillin and p-hydroxybenzaldehyde in reaction supernatant of wheat straw” value is “not enriched”; the “tricin in reaction supernatant of wheat straw vs buffer alone” value is reported as “significantly higher concentration of tricin”. In data set [10], the improvement in saccharification entry is listed as “no improvement in saccharification”.
